Measurements published in PMC4855518 (Nature, 2016).

Molecular target: G. thermodenitrificans SecYE (Geobacillus thermodenitrificans NG80-2, UniProt A4IJK8;A4IJH4)
Assay: SEC

B1: nanobody AYC08 (VHH)
VHH: QVQLVETGGGLVQPGGSLRLSCGASGSIFNMYAMGWYRQAPGKQREVVARIATDDSTMYPDSVKGRFTISRDNAKNTVYLQMNSLKPEDTAVYYCYYQRTVMSQPYWGQGTQVTVSS
- binding result: binds
